Where two headings read alike, the source gives them in different places.
What was measured:
[1] = biological target: MglA from Thermus thermophilus HB8, wild type (Thermus thermophilus HB8); assay: crystal structure
[2] = biological target: MglA from Thermus thermophilus HB8, wild type (Thermus thermophilus HB8); assay: fluorescence polarisation
MglA·MglB^A5 complex = biological target: T1, MglA·MglB^A5 complex (Thermus thermophilus, UniProt Q5SJ82); assay: X-ray crystal structure, […] Å; format: binding; conditions: with AlF4- as transition state mimic
T1 sequence (Q5SJ82 1-196): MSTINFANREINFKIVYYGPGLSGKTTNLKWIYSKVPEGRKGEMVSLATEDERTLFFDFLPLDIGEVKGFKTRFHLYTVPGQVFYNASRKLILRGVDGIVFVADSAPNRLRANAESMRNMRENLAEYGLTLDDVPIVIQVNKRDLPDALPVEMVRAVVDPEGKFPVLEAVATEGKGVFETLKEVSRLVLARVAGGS
T1 sequence (Q5SJ83 6-139 E14A/R15A/G65S/R124A/E127A/R131A partner): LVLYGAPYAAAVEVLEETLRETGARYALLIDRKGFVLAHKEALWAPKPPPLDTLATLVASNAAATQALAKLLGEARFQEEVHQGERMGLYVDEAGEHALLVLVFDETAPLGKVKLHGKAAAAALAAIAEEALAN

T.t.MglA = biological target: T2, T.t.MglA (Thermus thermophilus, UniProt Q5SJ82); assay: X-ray crystal structure, […] Å; format: binding; conditions: no Mg2+ detected at the nucleotide
T2 sequence (Q5SJ82 1-196): T1 sequence (Q5SJ82 1-196)

[3] = biological target: MglB from Thermus thermophilus HB8, residues 6-139 (Thermus thermophilus HB8); assay: crystal structure
[4] = biological target: MglB from Thermus thermophilus HB8, residues 6-139 (Thermus thermophilus HB8); assay: crystal structure; remark: listed apart in the source
[5] = biological target: MglA from Thermus thermophilus HB8, wild type (Thermus thermophilus HB8); assay: SEC
[6] = biological target: MglB from Thermus thermophilus HB8, residues 6-139 (Thermus thermophilus HB8); assay: SEC
[7] = biological target: MglA from Thermus thermophilus HB8, wild type (Thermus thermophilus HB8); assay: fluorescence polarisation; remark: listed apart in the source

MglB^A5 (E14/R15/R124/E127/R131A), residues 6-139 (domain or fragment)
stoichiometry N (MglB per MglA) [1]: 2

MglB^A68/72R, residues 6-139 (domain or fragment)
Kd [2]: 34.6 µM

Nc1nc2c(ncn2[C@@H]2O[C@H](COP(=O)(O)OP(=O)(O)O)[C@@H](O)[C@H]2O)c(=O)[nH]1 [GDP]
X-ray crystal structure, 2.2 Å (MglA·MglB^A5 complex): 3T12 (MglA·GDP·AlF4-·MglB^A5)
X-ray crystal structure, 1.9 Å (T.t.MglA): 3T1O (MglA·GDP)

MglB from Thermus thermophilus HB8, residues 6-139 (domain or fragment)
stoichiometry N [3]: 4
stoichiometry N [4]: 2
stoichiometry N (MglB per MglA) [5]: 2
stoichiometry N [6]: 2
Kd [7]: 2 µM
Kd [2]: 3.2 µM
stoichiometry N (MglB monomers per MglA) [2]: 2

— publication PMC3199381 (The EMBO Journal, 2011)
